From patent publication US20150118239A1 (GEORG AUGUST UNIVERSIT T G TTINGEN STIFTUNG FFENTLICHEN …, published 2015)

Legend:
[1] = biological target: Aβ4-42 (human); assay: cell-based or functional assay
[2] = biological target: Aβ4-38 (human); assay: cell-based or functional assay
[3] = biological target: Aβ4-40 (human); assay: cell-based or functional assay
[4] = biological target: AβpE3-42 (human, N-terminal pyroglutamate at Aβ position 3 (pE3)); assay: cell-based or functional assay
[5] = biological target: T1, Aβ4-10 (human); assay: hybridoma screening ELISA
T1 construct: Screening peptide of the hybridoma ELISA
T1 peptide: FRHDSGY

[6] = biological target: T2, Aβ36-40 (human); assay: hybridoma screening ELISA
T2 construct: Counter-screening peptide of the hybridoma ELISA
T2 peptide: VGGVV

[7] = biological target: T3, AβpE3-42 low molecular weight (LMW) oligomers (human, N-terminal pyroglutamate at Aβ position 3 (pE3)); assay: native Western blot, sensitivity test
T3 construct: otherwise only LMW oligomers

[8] = biological target: T4, Aβ4-42 low molecular weight (LMW) oligomers (human); assay: native Western blot, sensitivity test
T4 construct: otherwise only LMW oligomers; also called Aβ4-42 oligomers

[9] = biological target: α-Synuclein aggregates (Lewy bodies, Lewy neurites, glial cytoplasmic inclusions) (human, UniProt P37840 1-140); assay: IHC, brain sections of non-AD neurodegenerative disorders
[10] = biological target: T5, Phospho-Tau aggregates (tufted astrocytes in PSP, Pick bodies in PiD) (human, UniProt P10636-8 2-441, limits assumed, phosphorylated, sites not stated); assay: as above
T5 construct: Tissue aggregates in patients' brain sections; also called pTau

[11] = biological target: T6, Phospho-TDP-43 neuronal cytoplasmic and neuritic deposits (human, UniProt Q13148 1-414, limits assumed, phosphorylated, sites not stated); assay: as above
T6 construct: Tissue aggregates in patients' brain sections

[12] = biological target: T7, Prion protein (PrP) deposits (human, UniProt P04156 23-230); assay: as above
T7 construct: also called PrP immunopositive amyloid plaques, synaptic, plaque-like and perineuronal deposits

[13] = biological target: T8, Aβ5-20 (human); assay: pepscan ELISA
T8 construct: Pepscan 16-mer
T8 peptide: RHDSGYEVHHQKLVFF

[14] = biological target: T9, Aβ2-17 (human); assay: pepscan ELISA, coated 16-mer peptides, antibody 7 µg/ml
T9 construct: Pepscan 16-mer
T9 peptide: AEFRHDSGYEVHHQKL

[15] = biological target: T10, Aβ3-18 (human); assay: as above
T10 construct: Pepscan 16-mer
T10 peptide: EFRHDSGYEVHHQKLV

[16] = biological target: T11, Aβ4-19 (human); assay: as above
T11 construct: Pepscan 16-mer
T11 peptide: FRHDSGYEVHHQKLVF

[17] = biological target: T12, Aβ4-38 (human); assay: native Western blot, equal amounts of freshly dissolved peptides
T12 construct: Synthetic peptide

[18] = biological target: T13, Aβ4-40 (human); assay: as above
T13 construct: Synthetic peptide, the immunogen

Binder	viability of SH-SY5Y cells (MTS), aged 10 µM peptide with against without antibody [1] [p value]	viability of SH-SY5Y cells (MTS), aged 10 µM peptide with against without antibody [2] [p value]	viability of SH-SY5Y cells (MTS), aged 10 µM peptide with against without antibody [3] [p value]	viability of SH-SY5Y cells (MTS), aged 10 µM peptide with against without antibody [4] [p value]	binding result [5]	binding result [6]	peptide amount giving similar signal intensity [7] [ng]	peptide amount giving similar signal intensity [8] [ng]	binding result [9]	binding result [10]	binding result [11]	binding result [12]	binding result [13]	binding result [14]	binding result [15]	binding result [16]	binding result [17]	binding result [18]
NT4X-167 (antibody, V domains shown, also called NT4X-67) VH: QVQLKQSGPGLVQPSQSLSITCTVSGFSLTSYGIHWVRQSPGKGLEWLGVMWSGGITDFYAAFISRLSISRDISKSQVFFKMNSLQADDTAIYYCARGSRYALDYWGQGTSVSVSS VL: DIQMTQTTSSLSASLGDRVTISCRASQDISNYLNWYQQKPDGTVKLLIYYTSRLHSGVPSRFSGSGSGTDYSLTISNLEQEDIATYFCQQGNTLPPTFGGGTKLEIK	< 0.01	< 0.01	< 0.01	< 0.05	binds	no binding	70	70	no binding	no binding	no binding	no binding						
NT4X-83 (antibody, V domains shown, also called Aβ4-40 NT4X-83; DSM ACC3161) VH: EVHLQQSGAELVKPGASVKLSCTASGFNIRDTYIHWVKQRPEQGLEWIGRVDPANGNTKYDPKFQGKATITADTSSDTAYLQLSSLTAEDTAVYFCARRIYYGYALFAYWGQGTLVTVSA VL: DIVMTQSPSSLTVTAGEKVTMSCKSSQSLLNSGNQKNYLTWYQQKPGQPPKLLIYWASTRESGVPDRFTGSGSGTDFTLTISSVQAEDLAVYYCQNDYSYPLTFGAGTKLELK					binds	no binding	500	500	no binding	no binding	no binding	no binding	no binding (tested: 7 µg/ml)	binds	binds	binds	binds	binds
